In patent US20250147051A1, “METHOD FOR DETECTING A TAU PROTEIN IN A SALIVA SAMPLE” (GTINVENT LIMITED, priority 2022, published 2025):
“Also recorded” adds a separate entry of the source.

Columns and labels:
tau = test: Western blot of mouse brain homogenates (WT, L66+/+, L1+/+); conditions: 20 μg brain homogenate protein, 5-month-old WT, L1+/+ mice
Method: Protein equivalent to 20 μg from each brain extract was separated using 4-20% bis-tris gels and run in 1×MES buffer. […] A clear band is visible in the lanes containing L66^+/+ samples, but no other bands are detectable (WT or L1^+/+). […] Once again, a band having relative mobility of 65 kDa is visible in the L66 sample with no other reactive bands present.
This band most likely corresponds to endogenous mouse tau which is of a similar size. In the L66^+/+ samples, a second band running at approximately 68 kDa is also detected. The presence of numerous other bands indicates proteolytic truncation of tau within brain homogenates.

dGA = dGA (Homo sapiens, UniProt P10636); test: Biacore X100 SPR binding kinetics of anti-tau scAbs (scAb captured via HuCk), analyte dGA; conditions: lead scAbs; for ka: Table 24; for dissociation rate constant (kd): Table 24, dissociation rate
Method: (§1) Surface plasmon resonance (SPR) is widely regarded as the gold standard for real time measurement of protein-protein interactions such as antibody binding. All SPR experiments were carried out using a Biacore X100 machine and HBS EP+ running buffer (GE Healthcare). A ‘capture’ method was followed for affinity measurements, where an anti-human constant kappa chain (HuCk) antibody was conjugated to the surface of a CM5 sensor chip using an amine coupling kit and scAb molecules were immobilised via their HuCk domain. Amine coupling is a very common approach for immobilising the ligand to the chip surface. The chip surface has a dextran matrix derivatised with carboxyl groups, which after activation with N-hydroxysuccinimide (NHS) and 1-ethyl-3-(3-dimethylaminopropyl) carbodiimide (EDC), form reactive succinimide esters which allows the covalent capturing of the ligand via any available primary amine groups (e.g. Lysine) on the ligand (in this case anti-HuCk antibody). The capture antibody was diluted 1/100 in 10 mM Sodium acetate buffer pH 5.0 and passed over the activated chip surface for a period of at least 420 s. Final ligand immobilisation levels over 12,000 RU were deemed to be satisfactory.
(§2) Following immobilisation, the level of each scAb to be captured was identified using the standard SPR equation with a theoretical RMax of 100 RU. Analyte MW refers to the molecular weight of hT40 or dGA/dGAE molecules, while ligand MW refers to the molecular weight of the scAbs tested. RLis the desired capture level and S refers to the stoichiometric ratio:
(§3) The scAb to be tested was added only to flow cell 2 so that flow cell 1 could act as a control to subtract any interaction with the analyte and the chip surface. Both single and multi-cycle runs were utilised using wizards developed in the Biacore X100 control software which are both accepted methods of kinetic analysis (Karlsson, R., et al. Analyzing a kinetic titration series using affinity biosensors (2006) Analytical Biochemistry 349:136-47). The multi-cycle protocol was as follows-Three start-up cycles composed of an initial capture, to the desired level, of the scAb to be tested was performed followed by a 30 s injection of glycine buffer pH 2.0 after each cycle to regenerate the chip surface. The regeneration step removed any captured scAb whilst leaving the capture antibody intact and able to repeat the capture for the next cycle. Following three start-up cycles increasing concentrations (0.15625 nM-100 nM) of the target to be tested were added to the chip surface after the desired scAb capture. The target was added for a 120 s association period and 420 s dissociation period followed by another regeneration, 30 s injection of glycine buffer pH 2.0 in between each cycle.
The single cycle kinetics protocol was similar and utilised the same level of scAb capture. Three start-up cycles were used followed by 5 increasing concentrations of the analyte (6.25 nM-100 nM) for an association period of 120 s followed by a dissociation period of 420 s for each concentration. In single cycle kinetics the regeneration step was performed only after the final analyte concentration was added. Binding responses were analysed in Biacore X100 evaluation software and data fitted to a 1:1 binding model to obtain kinetic and affinity characterisation.

core region tau = test: S1D12 immunotherapy 6-week repeat-dose mouse study, plasma tau by CA4-S1G2 core-core Simoa assay; assay type: in vivo
Method: A total of 12 wildtype, 12 Line 1 and 12 Line 66 female mice were used in this study—Line 1 and Line 66 are transgenic mouse models of tauopathy (Melis et al., 2015). Animals were 2 months old at the beginning of the study. Mice of each genotype were injected intraperitoneally (i.p.) with either vehicle or S1D12 mAb (30 mg/kg), once per week, for six consecutive weeks.
Seven days post final dose, cardiac puncture blood sampling was performed. mice were anaesthetised using an overdose of sodium pentobarbital (i.p.) and blood was collected via cardiac puncture through a Plastipak syringe pre-rinsed with heparinised saline (10 U/mL) and transferred into a plastic vial containing lithium heparin anticoagulant. Blood samples were centrifuged to obtain plasma at 2,000×g for 5 min at 6° C.
In order to monitor the ‘treatment effect’ of S1D12 mAb, plasma tau of vehicle control and antibody treated L66^+/+ mice were assessed via a core-core homebrew Simoa® assay to investigate changes in core tau pools in these mice.

dGAE = dGAE (Homo sapiens, UniProt P10636); test: Biacore X100 SPR binding kinetics of anti-tau scAbs (scAb captured via HuCk), analyte dGAE; conditions: lead scAbs
Method: as §1, §2
as §3, with “Following three start-up cycles increasing concentrations (0.15625 nM-100 nM) of the target to be tested were added to the chip surface after the desired scAb capture. The target was added for a 120 s association period and 420 s dissociation period followed by another regeneration, 30 s injection of glycine buffer pH 2.0 in between each cycle.” left out
The single cycle kinetics protocol was similar and utilised the same level of scAb capture. […] Binding responses were analysed in Biacore X100 evaluation software and data fitted to a 1:1 binding model to obtain kinetic and affinity characterisation.

dGAE aggregates = molecular target: T1, dGAE aggregates (Homo sapiens, UniProt P10636); test: Sandwich ELISA LoD for SDS Triton X-100 treated dGAE aggregates; assay type: binding; conditions: label = detection scAb
T1 construct: host or cells: aggregated in house: 100 μM dGAE with DTT, 700 rpm, 37 °C, 24 h
Method: For aggregation, 1000 μL 100 μM dGAE+10 μL 10 mM DTT was added to a ‘LoBind’ microfuge tubes and agitated at 700 RPM/37° C. for 24 hours. Resulting sample centrifuged at 17,000×g/4° C. for 60 min and supernatant discarded to remove left over monomer. Pellet resuspended in half the original volume for future experiments and hereafter referred to as ‘aggregates’. 1 μl of aggregates was added to 1 ml of PBS and SDS was added to a final concentration of 1% (w/v). This was left to incubate on lab bench for 1 h with gentle agitation every 15 minutes. In order to neutralise the SDS effect on ELISA, Triton X-100 added to a final concentration of 3% (v/v) and mixed gently by pipetting to prevent any bubble formation. 200 μl added of this mix was to the first well of an ELISA plate coated with 1 μg/ml S1D12 mAb and blocked with 2% MPBS. Similarly aggregates treated with only SDS or Triton X-100, untreated aggregates, dGAE monomers treated with only SDS or SDS+Titon X-100 were also added to designated wells as controls. All samples were then double diluted across the plate in final volumes of 100 μl. The final column was left with no protein to act as a blank. This was allowed to stand at room temperature for 1 hour followed by the addition of detection scAb-S1G2 at 10 μg/ml. Anti-HuCk HRP labelled secondary antibody was added as described previously and ELISA data generated was represented using the graph below. In addition, limits of detection (LoD) of various core binding antibody pairing for SDS Triton X-100 treated dGAE aggregates were calculated using the above describe ELISA method and substituting capture mAbs and detection scAbs as shown in Table 30.

tau protein = test: Capture ELISA of transgenic mouse brain lysates; conditions: S1D12 mAb capture; label = detection scAb; WT, L1, L66+/- and L66+/+
Method: Mouse brain lysates were prepared from wildtype, Line 1, Line 66+/+ and Line 66+/− (Melis et al., 2015, all surplus from Charles River, part of study R0144). All animals were female, 7-8 months old except Line 66+/+ which were 5 months old. […] The L1 cDNA construct (FIG. 23) contains human tau cDNA coding for amino acid residues 296-390 with a signal sequence and related sequences in a murine Thy-1 expression cassette. For brain lysate preparation, half brains were sectioned into four and the individual sections were homogenised in 400 μl of ice cold RIPA buffer (Cell signalling Technology) containing protease and phosphatase inhibitors. Total protein concentrations for individual samples were established by BCA-assay and each sample was subsequently diluted to 1 mg/ml for future experiments.
For capture ELISA, 100 μL S1D12 capture mAb was used to coat a nunc 96 well Maxisorp plate at 1 μg/ml and incubated for 1 hour at 37° C. Plate was washed as previously and then blocked for 1 hour at 37° C. in 2% MPBS. Brain homogenate samples (50 ng total protein) from each mouse type were added to the first wells and double diluted across the plate in PBS. These samples were left to incubate at RT for 1 hour. Various detection scAbs encompassing epitopes of interest were then added to the plate at 1 μg/ml and incubated for 1 h at RT. Secondary antibody used was anti-HuCk HRP and the assays were developed as described previously. Using S1D12 mAb capture and two separate scAb detectors, S-1G2 (FIG. 24A) and C-B7 (FIG. 24B), it was possible to differentiate between L1 and L66 samples and the wild type.

T1 sequence (P10636 614-708): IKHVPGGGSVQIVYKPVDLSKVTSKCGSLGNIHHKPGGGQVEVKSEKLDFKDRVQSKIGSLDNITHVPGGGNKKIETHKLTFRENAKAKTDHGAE
Sequence of dGA (P10636 614-707): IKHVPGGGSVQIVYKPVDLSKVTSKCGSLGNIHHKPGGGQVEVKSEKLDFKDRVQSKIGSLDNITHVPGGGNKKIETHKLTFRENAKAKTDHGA
Sequence of dGAE (P10636 614-708): as the sequence (P10636 614-708) above

Molecule	Western blot reactivity (tau)	ka (dGA) [M⁻¹ s⁻¹]	dissociation rate constant (kd) (dGA) [s⁻¹]	plasma tau, L66+/+ mice with S1D12 treatment (core region tau; 30 mg/kg i.p. once per week for six weeks, CA4-S1G2 Simoa)	increase of core region tau in plasma vs vehicle group, L1 (core region tau; CA4-S1G2 pairing, n=5 or 6)	increase of core region tau in plasma vs vehicle group, L66 (core region tau; CA4-S1G2 pairing, n=5 or 6)	increase of core region tau in plasma vs vehicle group, wild-type (core region tau; CA4-S1G2 pairing, n=5 or 6)	ka (dGAE; Table 24) [M⁻¹ s⁻¹]	dissociation rate constant (koff) (dGAE; Table 24, dissociation rate) [s⁻¹]	LoD, 423 mAb capture, +SDS Triton dGAE agg. (dGAE aggregates) [ng/mL]	LoD, S1D12 mAb capture, +SDS Triton dGAE agg. (dGAE aggregates)	LoD, direct immobilisation of dGAE aggregates, +SDS Triton dGAE agg. (dGAE aggregates) [ng/mL]	detection of tau in mouse brain homogenate (tau protein)
S1D12: anti-tau binding molecule defined by its CDRs; scAb sequence SEQ ID NO: 32 (protein, S1D12 amino acid sequence) scFv: QVQLQESGPSLVKPSQTLSLTCTVSGFSLNNNAVGWVRQAPGKVPESLVGCSSDGTCYYNSALKSRLDITRDTSKNQISLSLSSVTTDDAAVYYCTRGHYSIYGYDYLGTIDYWGPGLLVTVSSEGKSSGASGESKVDDQAVLTQPSSVSGSLGQRVSITCSGSSSNVGGGNSVGWYQHLPGSGLKTIIYDTNSRPSGVPDRFSGSRSGNTATLTINSLQAEDEGDYYCVTGDSTTHDDLVGSGTRLTVLG	A band is detected in each sample (WT, L66^+/+ and L1^+/+)	1.21e+06	0.000418	3.52 (0.20) ng/ml	more than 100 fold	more than a threefold increase	less than a two-fold increase	–	–	–	–	–	–
E1E8: anti-tau clone, SEQ ID NO: 250 (protein, E1E8 amino acid sequence) scFv: QVQLQESGPSLVKPSQTLSLTCTVSGFSLTDWGVAWVRQAPGKALEWLGTMRSGGTTDDNPALKSRLSITRDTSKSQVSLSLSSVTTEDMAMYYCARGYLSGVHYAWGRGLLVTVSSEGKSSGASGESKVDDQAVLTQPSSVSGSLGQSVSITCSGSSSNVGDGRYVSWFQQVPGSAPKLLIYDTTSRASGVPDRFSGSRSGNTATLIITSLQAEDEADYYCASIDSGNNLLFGSGTRLTVLG	–	–	–	–	–	–	–	153500	0.0014	–	–	–	–
S1G2: anti-tau binding molecule defined by its CDRs; scAb sequence SEQ ID NO: 81 (protein, S1G2 amino acid sequence) scFv: QVQLQESGPSLVKPSQTLSLTCTVSGFSLTSNSVGWVRQAPGKAPEWVAGIDTDGEEGYNPALNSRLSITRDTSKSQVSLSLSSVTSEDTAVYYCGRSYRADGLAYGYVQAIDYWGPGLLVTVSSEGKSSGASGESKVDDQAVVTQPSSVSGSLGQRVSITCSGSFIGISSVGWFQQLPGSGLRTIIVASDGRPSGVPDRFSMSKSGNTATLTISSLQAEDEADYFCGSSDRTPYTGVFGSGTRLTVLG	A band is detected in each sample (WT, L66^+/+ and L1^+/+); also recorded: able to detect the pathologic 10-kDa tau fragment	783000	0.0003499	–	–	–	–	–	–	30	approximately 2 ng/ml	16	tau protein was detected in 50 μg of total brain protein in all four different sample types
